From patent publication US20220251222A1 (Johns Hopkins, published 2022)

T1: IL-6Rα expressed on lentivirally transduced HEK 293T cells (UniProt P08887 20-468, limits assumed)
T1 construct: whole, on cells; also called IL-6Rα^+ cells; IL-6Rα^+/IL-8R^- HEK 293T cells
T1 sequence (looked up): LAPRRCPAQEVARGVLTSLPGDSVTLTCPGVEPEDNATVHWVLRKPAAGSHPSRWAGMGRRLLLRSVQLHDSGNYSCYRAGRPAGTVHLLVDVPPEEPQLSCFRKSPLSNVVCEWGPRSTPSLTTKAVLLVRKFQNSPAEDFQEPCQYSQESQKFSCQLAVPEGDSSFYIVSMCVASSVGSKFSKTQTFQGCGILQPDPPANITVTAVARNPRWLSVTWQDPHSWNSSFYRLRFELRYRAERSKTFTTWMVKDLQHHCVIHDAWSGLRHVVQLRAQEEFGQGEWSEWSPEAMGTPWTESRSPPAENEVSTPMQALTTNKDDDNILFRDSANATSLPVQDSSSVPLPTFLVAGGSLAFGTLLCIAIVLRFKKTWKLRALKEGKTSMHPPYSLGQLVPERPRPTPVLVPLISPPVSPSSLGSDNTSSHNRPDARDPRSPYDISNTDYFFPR

T2: IL-8RB expressed on lentivirally transduced HEK 293T cells (UniProt P25025 1-360, limits assumed)
T2 construct: whole, on cells; also called IL-8R^+ cells; IL-6Rα^-/IL-8R^+ HEK 293T cells
T2 sequence (looked up): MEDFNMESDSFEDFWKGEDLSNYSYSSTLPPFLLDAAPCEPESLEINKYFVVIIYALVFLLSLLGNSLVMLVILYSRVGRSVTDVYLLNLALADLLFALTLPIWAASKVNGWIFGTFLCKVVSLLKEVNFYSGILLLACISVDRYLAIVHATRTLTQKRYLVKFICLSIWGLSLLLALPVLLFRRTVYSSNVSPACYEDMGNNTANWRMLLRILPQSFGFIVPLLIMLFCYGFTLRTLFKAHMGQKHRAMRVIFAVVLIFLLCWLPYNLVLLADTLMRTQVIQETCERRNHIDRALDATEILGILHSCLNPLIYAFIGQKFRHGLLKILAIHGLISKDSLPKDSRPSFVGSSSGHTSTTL

T3: human IL-6Rα extracellular domain (ECD), residues 89-303 of the mature protein, with C-terminal biotin … (human, UniProt P08887 108-322, biotinylated with BirA ligase on the biotin acceptor peptide)
T3 construct: range 89-303; The range 89-303 counts on the mature protein, not on the precursor; Any linkers between the ECD, BAP and His tag are not described; also called IL-6Rα ECD; recombinant IL-6Rα
T3 sequence: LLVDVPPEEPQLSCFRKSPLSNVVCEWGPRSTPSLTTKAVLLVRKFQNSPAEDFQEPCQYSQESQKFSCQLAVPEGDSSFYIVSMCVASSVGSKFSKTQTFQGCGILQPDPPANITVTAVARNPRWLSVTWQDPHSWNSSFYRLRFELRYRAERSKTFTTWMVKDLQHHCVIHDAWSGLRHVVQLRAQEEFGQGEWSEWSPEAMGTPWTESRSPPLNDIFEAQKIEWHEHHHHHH


What was measured:
[1] = target: T1, IL-6Rα expressed on lentivirally …; assay: flow cytometry titration on IL-6Rα+/IL-8R+ HEK 293T cells; IL-6Rα+/IL-8R+ 293T cells (FIG. 7C)
Description: (§1) HEK 293T cells were cultured in Dulbecco's modified Eagle's medium (DMEM, Mediatech) supplemented with 10% (Hyclone), 2 mM L-glutamine and 100 U/mL penicillin-streptomycin (Gibco). For surface binding assays, IL-6Rα⁺/IL-8R⁻, IL-6Rα⁻/IL-8R⁺, IL-6Rα⁺/IL-8R⁺, and […] HEK 293T cells were trypsinized for detachment, resuspended in PBSA, and then aliquoted into 96-well plates (1×10⁵ cells per well). Cells were incubated with titrations of various monoclonal or bispecific antibodies for 2 hr at 4° C. with rotation. Cells were then washed and incubated with a 1:50 dilution of fluorescein isothiocyanate (FITC)-conjugated anti-human IgG1 antibody (Sigma-Aldrich, Clone 8c/6-39) in PBSA for 15 min at 4° C. After a final wash, cells were resuspended in PBSA and analyzed on a CytoFLEX flow cytometer (Beckman Coulter). Binding isotherms were fitted to a first-order logistic model and KD values were calculated using GraphPad Prism data analysis software. Mean fluorescence intensity (MFI) of unstimulated cells was subtracted. […]
(§2) To determine whether engineered bispecific binding agents BS1 and BS2 specifically engage target antigens in a physiologically relevant context, antibody binding to IL-6Rα⁺/IL-8R⁻, IL-6Rα⁻/IL-8R⁺, IL-6Rα⁺/IL-8R⁺, and IL-6Rα⁻/IL-8R⁻ lentivirally transduced HEK 293T cells was measured via flow cytometry. […]

[2] = target: T2, IL-8RB expressed on lentivirally …; assay: flow cytometry binding titration on IL-6R-/IL-8R+ HEK 293T cells, detected with FITC anti-human IgG1
Description: as §1, §2

[3] = target: T3, human IL-6Rα extracellular domain …; assay: BLI equilibrium titration, biotinylated IL-6Rα ECD on streptavidin tips; bivalent IgG, BLI on recombinant IL-6Rα
Description: Biotinylated human IL-6Rα ECD was immobilized to streptavidin-coated tips for analysis on an Octet® Red96 BLI instrument (ForteBio). Less than 5 signal units (nm) of receptor was immobilized to minimize mass transfer effects. Tips were exposed to serial dilutions of the anti-IL-6R antibody tocilizumab, the anti-IL-8R antibody 10H2, BS1, or BS2 in a 96-well plate for 300 s and dissociation was measured for 600 s. Surface regeneration for all interactions was conducted using 15 s exposure to 0.1 M glycine pH 3.0. Experiments were carried out in PBSA (phosphate-buffered saline [PBS] pH 7.3 plus 0.1% bovine serum albumin [BSA, Thermo]) at 25° C. Data was visualized and processed using the Octet® Data Analysis software version 7.1 (ForteBio). Equilibrium titration curve fitting and equilibrium dissociation constant (KD) value determination was implemented in GraphPad Prism software using a first-order logistic model. Experiments were reproduced two times with similar results.
To confirm functionality of our bispecific agents, antibodies were titrated against recombinant IL-6Rα via BLI. […] Moreover, both tocilizumab-containing engineered bispecific binding agents also bound IL-6Rα (FIG. 5).

[4] = target: T2, IL-8RB expressed on lentivirally …; assay: flow cytometry titration on IL-6Rα-/IL-8R+ HEK 293T cells; IL-6Rα-/IL-8R+ 293T cells (FIG. 7B)
Description: as §1, §2

[5] = target: T1, IL-6Rα expressed on lentivirally …; assay: flow cytometry titration on IL-6Rα+/IL-8R- HEK 293T cells; IL-6Rα+/IL-8R- 293T cells (FIG. 7A)
Description: as §1, §2

| Binder | Kd [1] [nM] | binding result [2] | Kd [3] [nM] | Kd [4] [nM] | Kd [5] [nM] |
| --- | --- | --- | --- | --- | --- |
| tocilizumab, recombinant monoclonal hIgG1 (anti-IL-6Rα) (antibody, V domains shown, also called anti-IL-6Rα antibody) VH: EVQLQESGPGLVRPSQTLSLTCTVSGYSITSDHAWSWVRQPPGRGLEWIGYISYSGITTYNPSLKSRVTMLRDTSKNQFSLRLSSVTAADTAVYYCARSLARTTAMDYWGQGSLVTVSS VL: DIQMTQSPSSLSASVGDRVTITCRASQDISSYLNWYQQKPGKAPKLLIYYTSRLHSGVPSRFSGSGSGTDFTFTISSLQPEDIATYYCQQGNTLPYTFGQGTKVEIK | 3.1 | no binding (tested: 1e-6 M) | 28 | – | – |
| BS2 bispecific antibody (scFv-IgG fusion: 10H2 IgG with tocilizumab scFv on the light chains) (bispecific antibody, Human IgG1-based) heavy: not shown light: AGSQAVVTQESALTTSPGETVTLTCRSSTGAVTTSNYANWVQEKPDHLFTGLIGGTNNRPPGVPARFSGSLIGDKAALTITGAQIEDEAIYFCALWYSNHLVFGGGTKLTVLRTVAAPSVFIFPPSDEQLKSGTASVVCLLNNFYPREAKVQWKVDNALQSGNSQESVTEQDSKDSTYSLSSTLTLSKADYEKHKVYACEVTHQGLSSPVTKSFNRGECGGGGSGGGGSEVQLQESGPGLVRPSQTLSLTCTVSGYSITSDHAWSWVRQPPGRGLEWIGYISYSGITTYNPSLKSRVTMLRDTSKNQFSLRLSSVTAADTAVYYCARSLARTTAMDYWGQGSLVTVSSGGGGSGGGGSGGGGSDIQMTQSPSSLSASVGDRVTITCRASQDISSYLNWYQQKPGKAPKLLIYYTSRLHSGVPSRFSGSGSGTDFTFTISSLQPEDIATYYCQQGNTLPYTFGQGTKVEIK | – | – | – | 3.5 | 19 |
